Assay [1] concerns the target HKU1 isolate N1 (genotype A) RBD, wildtype, biotinylated (avi tag) (UniProt Q5MQD0). Description: BLI. The following applies: read off a plot; for percent of parent: area under the binding response curve.
In assay [2] the target is cleaved human TMPRSS2 ectodomain harboring the S441A residue substitution and a C379-T447C disulfide bond (UniProt O15393). As to the kind of experiment: BLI. The following applies: 100 nM TMPRSS2 S441A for 200 seconds followed by dissociation for 400 seconds; RBD on SA biosensors; value read at 200 s; parent: est. 0.53; read off a plot.
Assay [3] addresses human TMPRSS2 ectodomain harboring S441, the DS mutation, SUMO and the N249 glycan (self-activating; wildtype of Figure 4C) (human) (UniProt O15393). As to the kind of experiment: enzyme inhibition kinetics (peptidase assay, competitive inhibition fit); 5 nM TMPRSS2 with serial dilutions of Boc-QAR-AMC substrate in the presence of 215, 72 or 24 nM HKU1 RBD, 22 °C; TMPRSS2 incubated 2 minutes with the RBD before substrate.

[4] abbreviates: 100 nM TMPRSS2 mutants for 200 seconds followed by dissociation for 400 seconds, RBD on SA biosensors, value read at 200 s, parent: est. 0.50.

Turning to “human TMPRSS2 ectodomain harboring S441, the DS mutation, SUMO and the N249 glycan (self-activating; wildtype of Figure 4C) (from UniProt O15393) D417N”, in assay [1] (100 nM TMPRSS2), the percent of parent is 15 % WT.
Still for that read-out and setting: for “human TMPRSS2 ectodomain harboring S441, the DS mutation, SUMO and the N249 glycan (self-activating; wildtype of Figure 4C) (from UniProt O15393) Y414L” the value was 2.5 % WT.
Still for that read-out and setting: next, “human TMPRSS2 ectodomain harboring S441, the DS mutation, SUMO and the N249 glycan (self-activating; wildtype of Figure 4C) (from UniProt O15393) S463Y”: 1.5 % WT; “human TMPRSS2 ectodomain harboring S441, the DS mutation, SUMO and the N249 glycan (self-activating; wildtype of Figure 4C) (from UniProt O15393) A468P”: 95 % WT.
Still for that read-out and setting: for “human TMPRSS2 ectodomain harboring S441, the DS mutation, SUMO and the N249 glycan (self-activating; wildtype of Figure 4C) (from UniProt O15393) Y469N” the value was 10 % WT.
“HKU1 isolate N1 (genotype A) RBD, wildtype, biotinylated (avi tag) (from UniProt Q5MQD0) E505A”: the response in assay [2] was 0.36 nm.
Consider “human TMPRSS2 ectodomain harboring S441, the DS mutation, SUMO and the N249 glycan (self-activating; wildtype of Figure 4C) (from UniProt O15393) Y414S”, for which, in assay [1] (100 nM TMPRSS2), the percent of parent was 28 % WT.
Same read-out and setting: for “human TMPRSS2 ectodomain harboring S441, the DS mutation, SUMO and the N249 glycan (self-activating; wildtype of Figure 4C) (from UniProt O15393) S412N” the value was 110 % WT.
For “human TMPRSS2 ectodomain harboring S441, the DS mutation, SUMO and the N249 glycan (self-activating; wildtype of Figure 4C) (from UniProt O15393) S441A”, the percent of parent in assay [1] (100 nM TMPRSS2, Not activated: uncleaved S441A TMPRSS2) was found to be 1.4 % WT; in assay [1] (100 nM TMPRSS2, cleaved (activated by enterokinase)), 100 % WT.
Turning to “HKU1 isolate N1 (genotype A) RBD, wildtype, biotinylated (avi tag) (from UniProt Q5MQD0) H488A”, the response in assay [2] is 0.18 nm.
For “human TMPRSS2 ectodomain harboring S441, the DS mutation, SUMO and the N249 glycan (self-activating; wildtype of Figure 4C) (from UniProt O15393) R409T”, in assay [1] (100 nM TMPRSS2), the percent of parent came to 79 % WT.
Turning to House Mouse TMPRSS2 ectodomain S441A, in assay [1] (100 nM TMPRSS2, area under the binding response curve normalised to human WT TMPRSS2, not to the mouse parent), the response turned out to be 19 % WT.
As to “HKU1 isolate N1 (genotype A) RBD, wildtype, biotinylated (avi tag) (from UniProt Q5MQD0) L510A”, in assay [2], the response worked out at 0 nm.
As for “human TMPRSS2 ectodomain harboring S441, the DS mutation, SUMO and the N249 glycan (self-activating; wildtype of Figure 4C) (from UniProt O15393) R413V”, in assay [1] (100 nM TMPRSS2), the percent of parent came out at 85 % WT.
For the substance “human TMPRSS2 ectodomain harboring S441, the DS mutation, SUMO and the N249 glycan (self-activating; wildtype of Figure 4C) (from UniProt O15393) T341S”, the percent of parent in assay [1] (100 nM TMPRSS2) is 85 % WT.
Still for that read-out and setting: for “human TMPRSS2 ectodomain harboring S441, the DS mutation, SUMO and the N249 glycan (self-activating; wildtype of Figure 4C) (from UniProt O15393) Y414R” the value was 3.9 % WT.
Consider “human TMPRSS2 ectodomain with S441 and the C379-T447C disulfide bond (wildtype of Figure 2F) (from UniProt O15393) W461A”, for which the response in assay [1] (setting [4]) turned out to be 0 nm.
With “human TMPRSS2 ectodomain harboring S441, the DS mutation, SUMO and the N249 glycan (self-activating; wildtype of Figure 4C) (from UniProt O15393) V415I”, the percent of parent in assay [1] (100 nM TMPRSS2) worked out at 71 % WT.
Consider “human TMPRSS2 ectodomain with S441 and the C379-T447C disulfide bond (wildtype of Figure 2F) (from UniProt O15393) Y469A”, for which the response in assay [1] (setting [4]) came to 0.36 nm.
For orientation: Ki means a measure of affinity in units of concentration, obtained from inhibition or displacement. Consider “HKU1 isolate N1 (genotype A) RBD, wildtype, without avi tag (from UniProt Q5MQD0 320-614) (domain or fragment)”, for which the Ki in assay [3] was 38 nM.
As for “human TMPRSS2 ectodomain harboring S441, the DS mutation, SUMO and the N249 glycan (self-activating; wildtype of Figure 4C) (from UniProt O15393) S412N; Y469L”, in assay [1] (100 nM TMPRSS2), the percent of parent was found to be 81 % WT.
As to “HKU1 isolate N1 (genotype A) RBD, wildtype, biotinylated (avi tag) (from UniProt Q5MQD0) Y528A”, the response in assay [2] was 0.11 nm.
As to “human TMPRSS2 ectodomain harboring S441, the DS mutation, SUMO and the N249 glycan (self-activating; wildtype of Figure 4C) (from UniProt O15393) R409K”, the percent of parent in assay [1] (100 nM TMPRSS2) was 81 % WT.
The same measure, in the same setting: next, “human TMPRSS2 ectodomain harboring S441, the DS mutation, SUMO and the N249 glycan (self-activating; wildtype of Figure 4C) (from UniProt O15393) Y469L”: 130 % WT.
Turning to “S441A House Mouse TMPRSS2 ectodomain (DS mutation, SUMO, N249 glycan) S412N”, the response in assay [1] (100 nM TMPRSS2, area under the binding response curve normalised to human WT TMPRSS2, not to the mouse parent, parent: est. 19) was 38 % WT.
Take “human TMPRSS2 ectodomain harboring S441, the DS mutation, SUMO and the N249 glycan (self-activating; wildtype of Figure 4C) (from UniProt O15393) L419A”: in assay [1] (100 nM TMPRSS2), the percent of parent worked out at 4.1 % WT.
For “human TMPRSS2 ectodomain with S441 and the C379-T447C disulfide bond (wildtype of Figure 2F) (from UniProt O15393) R470A”, in assay [1] (setting [4]), the response was 0.14 nm.
Take “human TMPRSS2 ectodomain harboring S441, the DS mutation, SUMO and the N249 glycan (self-activating; wildtype of Figure 4C) (from UniProt O15393) L419M”: the percent of parent in assay [1] (100 nM TMPRSS2) was determined as 51 % WT.
For “HKU1 isolate N1 (genotype A) RBD, wildtype, biotinylated (avi tag) (from UniProt Q5MQD0) R517A”, the response in assay [2] worked out at 0.022 nm.
On the same count and under the same terms, for “HKU1 isolate N1 (genotype A) RBD, wildtype, biotinylated (avi tag) (from UniProt Q5MQD0) W515A” the value was 0 nm.
“human TMPRSS2 ectodomain harboring S441, the DS mutation, SUMO and the N249 glycan (self-activating; wildtype of Figure 4C) (from UniProt O15393) K340D”: the percent of parent in assay [1] (100 nM TMPRSS2) came out at 57 % WT.
“human TMPRSS2 ectodomain harboring S441, the DS mutation, SUMO and the N249 glycan (self-activating; wildtype of Figure 4C) (from UniProt O15393) S463T”: the percent of parent in assay [1] (100 nM TMPRSS2) worked out at 2 % WT.
In the case of “human TMPRSS2 ectodomain harboring S441, the DS mutation, SUMO and the N249 glycan (self-activating; wildtype of Figure 4C) (from UniProt O15393) R413K”, the percent of parent in assay [1] (100 nM TMPRSS2) was 77 % WT.
Consider “human TMPRSS2 ectodomain harboring S441, the DS mutation, SUMO and the N249 glycan (self-activating; wildtype of Figure 4C) (from UniProt O15393) S463F”, for which, in assay [1] (100 nM TMPRSS2), the percent of parent was 1.6 % WT.
The same measure, in the same setting: for “human TMPRSS2 ectodomain harboring S441, the DS mutation, SUMO and the N249 glycan (self-activating; wildtype of Figure 4C) (from UniProt O15393) R470K” the value was 1.6 % WT.
Regarding “human TMPRSS2 ectodomain with S441 and the C379-T447C disulfide bond (wildtype of Figure 2F) (from UniProt O15393) Y414A”, the response in assay [1] (setting [4]) turned out to be 0.1 nm.
“HKU1 isolate N1 (genotype A) RBD, wildtype, biotinylated (avi tag) (from UniProt Q5MQD0) V509A”: in assay [2], the response was found to be 0.1 nm.

The record behind these values is PMC12854727.
